Reference: patent US20250321223A1 (KEMIJSKI INSTITUT, published 2025)

Legend:
[1] = target: T1, nLuc:cLyn; test: split firefly luciferase complementation in HEK293T cells, dasatinib dose response (FIG. 3A)
T1 construct: Expressed in HEK293T cells from pcDNA3; also called Myc:gsg:nLuc:gs10:cLyn; cSplit of Lyn CISPA sensor
Experimental: (§1) Cell cultures of HEK293T cells were grown at 37° C. and 5% CO₂. For cultivation, DMEM medium with 10% FBS, containing all the necessary nutrients and growth factors was used. When the cell population reached a sufficient density, the cells were transferred to a new flask and/or diluted. For use in experiments, the number of cells was determined by the Countess automated cell counter (Invitrogen). A 96-well microtiter plate, suitable for growing cell cultures, was inoculated with 2*10⁴ cells per well 24 hours prior to transfection. Inoculated plates were incubated at 37° C. and 5% CO₂. […] Twelve hours after transfection, the cells were stimulated by removing the media and replacing it with media containing selected ligands. Cells were stimulated for 24 hours.
(§2) Two days after transfection, the cells were harvested and lysed with 25 μl of 1× passive lysis buffer (Promega). Firefly luciferase and Renilla luciferase expression were measured using a dual luciferase assay (Promega) and an Orion II microplate reader (Berthold Technologies). […] Relative luciferase activity (RLU) was calculated by normalizing each sample's firefly luciferase activity to the constitutive Renilla luciferase activity determined within the same sample.
The plasmids encoding for designed CISPA sensor were transiently co-transfected into HEK293T cell line. […]

[2] = target: T2, nLuc:cPPARγ; test: split firefly luciferase complementation in HEK293T cells, ligand dose response (FIG. 2E)
T2 construct: Expressed in HEK293T cells from pcDNA3; also called Myc:gsg:nLuc:gs10:cPPARγ; cSplit of PPARγ CISPA sensor
T2 chain: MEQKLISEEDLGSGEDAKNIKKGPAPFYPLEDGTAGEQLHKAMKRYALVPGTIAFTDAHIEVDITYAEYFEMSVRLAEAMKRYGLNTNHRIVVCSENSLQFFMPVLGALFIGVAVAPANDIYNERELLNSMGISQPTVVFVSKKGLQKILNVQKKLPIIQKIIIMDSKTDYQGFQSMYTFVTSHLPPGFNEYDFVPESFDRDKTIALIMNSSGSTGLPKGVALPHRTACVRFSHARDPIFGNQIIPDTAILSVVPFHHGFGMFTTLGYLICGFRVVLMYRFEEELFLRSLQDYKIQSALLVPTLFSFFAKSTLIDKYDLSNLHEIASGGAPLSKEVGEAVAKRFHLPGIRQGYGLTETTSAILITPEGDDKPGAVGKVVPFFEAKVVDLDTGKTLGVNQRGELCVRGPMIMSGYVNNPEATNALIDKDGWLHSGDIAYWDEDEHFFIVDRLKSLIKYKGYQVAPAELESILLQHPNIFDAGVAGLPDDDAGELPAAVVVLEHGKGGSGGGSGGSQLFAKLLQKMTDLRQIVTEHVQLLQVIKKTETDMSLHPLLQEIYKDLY
Experimental: (§3) 50 ng of each plasmid encoding CISPA sensor pair was transiently co-transfected in HEK293T cells which were 24 h post-transfection stimulated with the indicated ligands. […] Replicates represent HEK293T cell cultures, individually transfected with the same mixture of plasmids. The values represent the mean and standard deviation of replicates within two to three independent experiments (n=4). Data was plotted as a standard dose response curve.
(§4) The fusion constructs were simultaneously expressed in the HEK293T cell line. […] Following this dimerization, the split reporter fragments (nLuc and cLuc) are brought into the proximity, leading to their reconstitution and measurable output signal (emitted light). The plasmids encoding for the CISPA sensors based on split LBDs were transiently transfected into the HEK293T cell line. […]
as §2

[3] = target: T3, nLuc:cGR2; test: split firefly luciferase complementation in HEK293T cells; dimerization only with cognate ligand
T3 construct: Expressed in HEK293T cells from pcDNA3; also called Myc:gsg:nLuc:gs10:cGR2; cSplit of GR2 CISPA sensor
T3 chain: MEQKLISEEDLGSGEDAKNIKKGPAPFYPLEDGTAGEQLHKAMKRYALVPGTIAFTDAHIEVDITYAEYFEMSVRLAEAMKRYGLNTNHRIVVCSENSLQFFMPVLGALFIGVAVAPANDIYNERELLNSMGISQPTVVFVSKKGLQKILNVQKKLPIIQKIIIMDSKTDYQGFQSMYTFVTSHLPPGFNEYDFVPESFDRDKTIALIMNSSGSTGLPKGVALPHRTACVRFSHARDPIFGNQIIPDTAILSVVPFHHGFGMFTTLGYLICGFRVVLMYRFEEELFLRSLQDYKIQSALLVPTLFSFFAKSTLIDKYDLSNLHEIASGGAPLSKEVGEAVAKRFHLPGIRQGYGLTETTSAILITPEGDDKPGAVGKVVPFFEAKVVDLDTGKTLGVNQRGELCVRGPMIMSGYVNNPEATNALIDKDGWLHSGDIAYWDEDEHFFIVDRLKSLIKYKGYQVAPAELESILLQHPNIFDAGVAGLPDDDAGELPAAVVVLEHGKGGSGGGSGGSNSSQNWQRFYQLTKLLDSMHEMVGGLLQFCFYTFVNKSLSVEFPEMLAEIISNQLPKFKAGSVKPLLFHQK
Experimental: as §3, §4, §2

[4] = target: T4, nLuc:cTRβ; test: split firefly luciferase complementation in HEK293T cells, ligand dose response (FIG. 2D)
T4 construct: also called Myc:gsg:nLuc:gs10:cTRβ; cSplit of TRβ CISPA sensor
T4 chain: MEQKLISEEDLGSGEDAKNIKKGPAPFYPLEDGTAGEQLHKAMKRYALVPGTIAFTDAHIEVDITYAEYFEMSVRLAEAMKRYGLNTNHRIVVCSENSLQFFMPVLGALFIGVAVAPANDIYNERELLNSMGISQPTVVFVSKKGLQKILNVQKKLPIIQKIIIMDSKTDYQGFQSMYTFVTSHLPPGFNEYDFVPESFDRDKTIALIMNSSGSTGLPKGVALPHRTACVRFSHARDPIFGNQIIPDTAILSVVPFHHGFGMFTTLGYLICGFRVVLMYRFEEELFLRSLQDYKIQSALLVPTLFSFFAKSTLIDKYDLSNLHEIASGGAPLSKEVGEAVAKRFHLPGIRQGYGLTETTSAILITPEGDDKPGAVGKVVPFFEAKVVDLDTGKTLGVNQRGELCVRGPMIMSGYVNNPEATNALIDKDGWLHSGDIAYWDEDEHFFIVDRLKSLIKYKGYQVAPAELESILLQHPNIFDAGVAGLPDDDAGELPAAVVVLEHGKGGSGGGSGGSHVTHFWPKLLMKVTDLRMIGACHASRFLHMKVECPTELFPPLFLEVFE

[5] = target: T5, nLuc:cDHFR (human, UniProt P08659 2-491 = luciferase); test: split firefly luciferase complementation in HEK293T cells, methotrexate or pralatrexate dose response (FIG. 3B)
T5 construct: Expressed in HEK293T cells from pcDNA3; also called Myc:gsg:nLuc:gs10:cDHFR; cSplit of DHFR CISPA sensor
Experimental: as §1, §2
The plasmids encoding for CISPA sensor was transiently co-transfected into HEK293T cell line. […]

[6] = target: T6, nLuc:cERβ; test: split firefly luciferase complementation in HEK293T cells, ligand dose response (FIG. 2C)
T6 construct: Expressed in HEK293T cells from pcDNA3; also called Myc:gsg:nLuc:gs10:cERβ; cSplit of ERβ CISPA sensor
T6 chain: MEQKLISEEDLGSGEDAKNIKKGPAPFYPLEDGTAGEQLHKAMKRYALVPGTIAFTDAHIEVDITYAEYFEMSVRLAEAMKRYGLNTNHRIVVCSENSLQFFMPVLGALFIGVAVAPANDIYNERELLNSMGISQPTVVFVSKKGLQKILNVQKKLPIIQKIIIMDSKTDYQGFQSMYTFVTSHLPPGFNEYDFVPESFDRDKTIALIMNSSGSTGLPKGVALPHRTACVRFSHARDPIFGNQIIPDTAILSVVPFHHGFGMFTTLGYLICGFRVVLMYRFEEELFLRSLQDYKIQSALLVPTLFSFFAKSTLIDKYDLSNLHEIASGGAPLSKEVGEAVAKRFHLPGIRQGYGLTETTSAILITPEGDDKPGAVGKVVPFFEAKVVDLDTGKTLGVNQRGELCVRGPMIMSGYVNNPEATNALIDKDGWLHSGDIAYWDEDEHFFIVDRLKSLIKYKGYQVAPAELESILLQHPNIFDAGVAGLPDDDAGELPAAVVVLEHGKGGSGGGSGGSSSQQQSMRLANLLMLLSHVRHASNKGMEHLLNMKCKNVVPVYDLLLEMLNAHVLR
Experimental: as §3, §4, §2

B1: nLyn:cLuc (other)
chain: MAWEIPRESIKLVKRLGAGQFGEVWMGYYNGGSGGGSGGSTMTEKEIVDYVASQVTTAKKLRGGVVFVDEVPKGLTGKLDARKIREILIKAKKGGKIAVNSGSGYPYDVPDYA
notes: Expressed in HEK293T cells from pcDNA3; also called nLyn:gs10:cLuc:gsg:HA; nSplit of Lyn CISPA sensor
[1]
  binding result: binds

B2: nPPARγ:cLuc (other)
chain: MGSHMLNPESADLRALAKHLYDSYIKSFPLTKAKARAILTGKTTDKSPFVIYDMNSLMMGEDKIKFKHITPLQEQSKEVAIRIFQGCQFRSVEAVQEITEYAKSIPGFVNLDLNDQVTLLKYGVHEIIYTMLASLMNKDGVLISEGQGFMTREFLKSLRKPFGDFMEPKFEFAVKFNALELDDSDLAIFIAVIILSGDRPGLLNVKPIEDIQDNLLQALELQLKLNHPESSGGSGGGSGGSTMTEKEIVDYVASQVTTAKKLRGGVVFVDEVPKGLTGKLDARKIREILIKAKKGGKIAVNSGSGYPYDVPDYA
notes: Expressed in HEK293T cells from pcDNA3; also called nPPARγ:gs10:cLuc:gsg:HA; nSplit of PPARγ CISPA sensor
[2]
  binding result: binds

B3: nGR2:cLuc (other)
chain: MLISLLEVIEPEVLYSGYDSTLPDTSTRLMSTLNRLGGRQVVSAVKWAKALPGFRNLHLDDQMTLLQYSWMSLMAFSLGWRSYKQSNGNMLCFAPDLVINEERMQLPYMYDQCQQMLKISSEFVRLQVSYDEYLCMKVLLLLSTVPKDGLKSQAVFDEIRMTYIKELGKAIVKREGGGSGGGSGGSTMTEKEIVDYVASQVTTAKKLRGGVVFVDEVPKGLTGKLDARKIREILIKAKKGGKIAVNSGSGYPYDVPDYA
notes: Expressed in HEK293T cells from pcDNA3; also called nGR2:gs10:cLuc:gsg:HA; nSplit of GR2 CISPA sensor
[3]
  binding result: binds

B4: nTRβ:cLuc (other)
chain: MHMEELQKSIGHKPEPTDEEWELIKTVTEAHVATNAQGSHWKQKRKFLPEDIGQAPIVNAPEGGKVDLEAFSHFTKIITPAITRVVDFAKKLPMFCELPCEDQIILLKGCCMEIMSLRAAVRYDPESETLTLNGEMAVTRGQLKNGGLGVVSDAIFDLGMSLSSFNLDDTEVALLQAVLLMSSDRPGLACVERIEKYQDSFLLAFEHYINYRKHGGSGGGSGGSTMTEKEIVDYVASQVTTAKKLRGGVVFVDEVPKGLTGKLDARKIREILIKAKKGGKIAVNSGSGYPYDVPDYA
notes: also called nTRβ:gs10:cLuc:gsg:HA; nSplit of TRβ CISPA sensor
[4]
  binding result: binds

B5: nDHFR:cLuc (other)
chain: MVGSLNCIVAVSQNMGIGKNGDLPWPPLRNEFRYFQRMTTTSSVEGKQNLVIMGKKTWFSIPEKNRPLKGRINLVLSRELKEPPQGAHFLSRSLDDALKLTEQPELANKVDMVWIVGGSSVYKEAMNHPGHLKLFVTRIMQDFESDTFFPEIDLEKYKLLPEYPGVLSDVQEEKGGSGGGSGGSTMTEKEIVDYVASQVTTAKKLRGGVVFVDEVPKGLTGKLDARKIREILIKAKKGGKIAVNSGSGYPYDVPDYA
notes: Expressed in HEK293T cells from pcDNA3; also called nDHFR:gs10:cLuc:gsg:HA; nSplit of DHFR CISPA sensor
[5]
  binding result: binds

B6: nERβ:cLuc (other)
chain: MDALSPEQLVLTLLEAEPPHVLISRPSAPFTEASMMMSLTKLADKELVHMISWAKKIPGFVELSLFDQVRLLESCWMEVLMMGLMWRSIDHPGKLIFAPDLVLDRDEGKCVEGILEIFDMLLATTSRFRELKLQHKEYLCVKAMILLNSSMYPLVTATQDADSSRKLAHLLNAVTDALVWVIAKSGIGGSGGGSGGSTMTEKEIVDYVASQVTTAKKLRGGVVFVDEVPKGLTGKLDARKIREILIKAKKGGKIAVNSGSGYPYDVPDYA
notes: Expressed in HEK293T cells from pcDNA3; also called nERβ:gs10:cLuc:gsg:HA; nSplit of ERβ CISPA sensor
[6]
  binding result: binds
